Columns and labels:
Settings in all cases: both partners purified
[1] = molecular target: T1, p38α kinase (residues 1–360 of human p38α) (human, UniProt Q16539 1-360); assay: NMR 15N CEST and CPMG relaxation dispersion; 247 μM 15N MKK4 with 6% molar ratio of p38α; data acquired previously [35], analysed here with a two-site exchange model
T1 construct: source: expressed and purified as described previously [34,35]

[2] = molecular target: T2, JNK1 kinase (residues 1–364 of human JNK1 (isoform α1) with a C-terminal 6xHis tag) (human, UniProt P45983 1-364); assay: NMR 15N CEST + ITC; on-rate worked out from the off-rate of CEST (5 °C) and the dissociation constant of ITC (20 °C)
T2 construct: Human JNK1 (c-Jun N-terminal kinase 1), isoform α1, residues 1-364; source: expressed and purified as described previously [34,35]

[3] = molecular target: T2, JNK1 kinase (residues 1–364 of human …); assay: NMR 15N CEST; 250 μM 15N MKK4 with 10% molar ratio of JNK1; 5 °C; 50 mM HEPES pH 7.1, 150 mM NaCl, 2 mM DTT, 5% glycerol; two-site exchange model (ChemEx)
[4] = molecular target: T1, p38α kinase (residues 1–360 of human …); assay: NMR 15N CEST and CPMG relaxation dispersion + ITC; on-rate worked out from the off-rate of the NMR exchange analysis and the dissociation constant of ITC (ITC of ref. 35)
[5] = molecular target: T2, JNK1 kinase (residues 1–364 of human …); assay: ITC; MKK4 (570 μM, with thioredoxin and 6xHis tag) titrated into JNK1 (42 μM); 20 °C; 50 mM HEPES pH 8.2, 150 mM NaCl, 10% glycerol, 0.5 mM TCEP; model of n identical and independent sites

T1 sequence (Q16539 whole entry, the tested form may be a part): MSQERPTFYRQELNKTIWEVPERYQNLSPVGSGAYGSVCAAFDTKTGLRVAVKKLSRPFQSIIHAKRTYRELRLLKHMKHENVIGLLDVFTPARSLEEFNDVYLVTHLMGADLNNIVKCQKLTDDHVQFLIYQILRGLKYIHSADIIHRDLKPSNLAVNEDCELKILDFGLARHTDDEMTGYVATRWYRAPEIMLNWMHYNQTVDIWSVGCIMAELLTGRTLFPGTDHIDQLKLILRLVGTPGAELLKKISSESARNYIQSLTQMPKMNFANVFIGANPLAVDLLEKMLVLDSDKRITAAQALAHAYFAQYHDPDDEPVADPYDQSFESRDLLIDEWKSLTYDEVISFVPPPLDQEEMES
T2 sequence (P45983 1-364): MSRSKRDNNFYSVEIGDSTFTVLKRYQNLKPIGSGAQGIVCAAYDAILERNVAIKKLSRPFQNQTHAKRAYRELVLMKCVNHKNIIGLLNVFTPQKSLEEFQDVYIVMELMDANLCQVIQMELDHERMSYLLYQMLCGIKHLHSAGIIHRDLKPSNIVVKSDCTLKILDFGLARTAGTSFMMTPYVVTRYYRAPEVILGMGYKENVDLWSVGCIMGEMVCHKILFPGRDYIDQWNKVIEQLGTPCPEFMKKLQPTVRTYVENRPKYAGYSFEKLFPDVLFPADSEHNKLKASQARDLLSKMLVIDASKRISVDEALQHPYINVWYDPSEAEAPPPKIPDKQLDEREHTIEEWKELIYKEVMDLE

B1: regulatory domain of MKK4 (residues 12–86 of human MKK4), 15N-labeled, for NMR (domain or fragment, UniProt P45985 12-86, looked up)
chain: SGGGSGSGTPGPVGSPAPGHPAVSSMQGKRKALKLNFANPPFKSTARFTLNPNPTGVQNPHIERLRTHSIESSGK
notes: Uniformly 15N-labeled for NMR; also called intrinsically disordered regulatory domain of MKK4; source: expressed and purified as described previously [34,35]
koff [1]: 205 s⁻¹ | population of the bound state (6% molar ratio of p38α) [1]: 6.2 ± 0.1% | kon [2]: 6.95e+07 M⁻¹ s⁻¹ | koff [3]: 90 s⁻¹ | population of the bound state (10% molar ratio of JNK1) [3]: 8.7 ± 0.1% | kon [4]: 5.01e+07 M⁻¹ s⁻¹

B2: regulatory domain of MKK4 (residues 12–86) with N-terminal thioredoxin and 6xHis tag, unlabeled, for ITC (domain or fragment, human, UniProt P45985 12-86, looked up)
chain: SGGGSGSGTPGPVGSPAPGHPAVSSMQGKRKALKLNFANPPFKSTARFTLNPNPTGVQNPHIERLRTHSIESSGK
notes: source: expressed and purified as described previously [34,35]; size-exclusion chromatography in the ITC buffer; not shown: thioredoxin, N-terminal, kept; His6, N-terminal, kept
Kd [5]: 1.3 µM | stoichiometry N [5]: 1
